# B1: GFP-Endophilin A1 (natural protein, UniProt Q99962 1-352, looked up)
# chain: MSVAGLKKQFHKATQKVSEKVGGAEGTKLDDDFKEMERKVDVTSRAVMEIMTKTIEYLQPNPASRAKLSMINTMSKIRGQEKGPGYPQAEALLAEAMLKFGRELGDDCNFGPALGEVGEAMRELSEVKDSLDIEVKQNFIDPLQNLHDKDLREIQHHLKKLEGRRLDFDYKKKRQGKIPDEELRQALEKFDESKEIAESSMFNLLEMDIEQVSQLSALVQAQLEYHKQAVQILQQVTVRLEERIRQASSQPRREYQPKPRMSLEFPTGDSTQPNGGLSHTGTPKPSGVQMDQPCCRALYDFEPENEGELGFKEGDIITLTNQIDENWYEGMLHGHSGFFPINYVEILVALPH
# notes: Endophilin A1, BAR domain protein; plasmid a gift from Dr. Ira Milosevic; The methods name only one 'GFP-endophilin'; source: HEK293, transfected, cross-linked in cells, in lysate
# B2: Amphiphysin2-GFP (natural protein, UniProt O00499 1-593, looked up)
# chain: MAEMGSKGVTAGKIASNVQKKLTRAQEKVLQKLGKADETKDEQFEQCVQNFNKQLTEGTRLQKDLRTYLASVKAMHEASKKLNECLQEVYEPDWPGRDEANKIAENNDLLWMDYHQKLVDQALLTMDTYLGQFPDIKSRIAKRGRKLVDYDSARHHYESLQTAKKKDEAKIAKPVSLLEKAAPQWCQGKLQAHLVAQTNLLRNQAEEELIKAQKVFEEMNVDLQEELPSLWNSRVGFYVNTFQSIAGLEENFHKEMSKLNQNLNDVLVGLEKQHGSNTFTVKAQPSDNAPAKGNKSPSPPDGSPAATPEIRVNHEPEPAGGATPGATLPKSPSQLRKGPPVPPPPKHTPSKEVKQEQILSLFEDTFVPEISVTTPSQFEAPGPFSEQASLLDLDFDPLPPVTSPVKAPTPSGQSIPWDLWEPTESPAGSLPSGEPSAAEGTFAVSWPSQTAEPGPAQPAEASEVAGGTQPAAGAQEPGETAASEAASSSLPAVVVETFPATVNGTVEGGSGAGRLDLPPGFMFKVQAQHDYTATDTDELQLKAGDVVLVIPFQNPEEQDEGWLMGVKESDWNQHKELEKCRGVFPENFTERVP
# notes: Amphiphysin 2, BAR domain protein; plasmid a gift from Dr. Emmanuel Boucrot; Called Amphiphysin2-GFP in the methods and ^GFPAmphiphysin in the results and the legend; also called ^GFPAmphiphysin; ^GFPamphiphysin; source: HEK293, transfected, cross-linked in cells, in lysate
# B3: his6ΔNT-PICK1 (natural protein, UniProt Q9EP80 1-416, looked up)
# chain: MFAKLGIPTVPGKVTLQKDAQNLIGISIGGGAQYCPCLYIVQVFDNTPAALDGTVAAGDEITGVNGRSIKGKTKVEVAKMIQEVKGEVTIHYNKLQADPKQGMSLDIVLKKVKHRLVENMSSGTADALGLSRAILCNDGLVKRLEELERTAELYKGMTEHTKNLLRAFYELSQTHRAFGDVFSVIGVREPQPAASEAFVKFADAHRSIEKFGIRLLKTIKPMLTDLNTYLNKAIPDTRLTIKKYLDVKFEYLSYCLKVKEMDDEEYSCIALGEPLYRVSTGNYEYRLILRCRQEARARFSQMRKDVLEKMELLDQKHVQDIVFQLQRFVSTMSKYYNDCYAVLRDADVFPIEVDLAHTTLAYGPNQGGFTDGEDEEEEEEDGAAREVSKDARGATGPTDKGGSWCDS
# notes: source: E. coli BL21(DE3), pET28, purified (Ni-NTA)
# B4: his64A-PICK1 (natural protein, UniProt Q9EP80 1-416, looked up)
# chain: MFADLDYDIEEDKLGIPTVPGKVTLQKDAQNLIGISIGGGAQYCPCLYIVQVFDNTPAALDGTVAAGDEITGVNGRSIKGKTKVEVAKMIQEVKGEVTIHYNKLQADPKQGMSLDIVLKKVKHRLVENMSSGTADALGLSRAILCNDGLVKRLEELERTAELYKGMTEHTKNLLRAFYELSQTHRAFGDVFSVIGVREPQPAASEAFVKFADAHRSIEKFGIRLLKTIKPMLTDLNTYLNKAIPDTRLTIKKYLDVKFEYLSYCLKVKEMAAAAYSCIALGEPLYRVSTGNYEYRLILRCRQEARARFSQMRKDVLEKMELLDQKHVQDIVFQLQRFVSTMSKYYNDCYAVLRDADVFPIEVDLAHTTLAYGPNQGGFTDGEDEEEEEEDGAAREVSKDARGATGPTDKGGSWCDS
# notes: PICK1 with residues 271DDEE274 in the BAR domain substituted by alanines; source: E. coli BL21(DE3), pET28, purified (Ni-NTA)
# How the values were obtained:
# [1] = molecular target: GFP-PICK1 BAR domain; assay: cross-linking; HEK293 cells in 2 ml PBS with 0.3 mM DSS for 20 min at room temperature, quenched with 50 mM Tris, lysed, Western blot (anti-GFP or anti-PICK1); for untagged PICK1 after 5 min with 3 μM ionomycin and a range of extracellular CaCl2
# [2] = molecular target: the molecule itself; assay: as above
# [3] = molecular target: the molecule itself; assay: cross-linking; 100 nM purified his6 protein in 150 mM NaCl, 20 mM HEPES pH 7.4, 5 mM HEDTA, CaCl2 to give [Ca2+]free of 0, 2, 5, 12, 26 μM; 10 μM DSS for 20 min at room temperature, quenched with 50 mM Tris; Western blot with anti-PICK1
Molecule,stoichiometry N [2],stoichiometry N [3],other results
GFP-PICK1 BAR domain (domain or fragment),,,stoichiometry N [1]: 2
B1,2,,
B2,2,,
B3,,2,
B4,,2,
